Experimental data: US20170290925A1, “Conjugates And Conjugating Reagents” (priority 2014, published 2017)
Where a SMILES comes first, the peptide text is derived from it. [ ]: non-standard residue; d: D form. The star is where a group is joined. Dolaproine = CO[C@@H]([C@@H]1CCCN1)[C@@H](C)C(=O)O; Dil = CC[C@H](C)[C@H](NC)[C@@H](CC(=O)O)OC; X1 = C[C@@H](N*)[C@@H](O)c1ccccc1; NMeV = CN[C@H](C(=O)O)C(C)C

Experiments:
[1] = test system: CD30-positive Karpas 299 cell line; assay: In vitro cell viability assay (CellTiter Glo) in Karpas 299; format: cell-based, human; details: Karpas 299 cells, 72 h incubation, conjugates DAR 4
Protocol: Purified brentuximab drug conjugates 10 and 11 with a drug to antibody ratio (DAR) of four as described in Example 6, were evaluated in vitro by measuring the inhibitory effect on cell growth of (CD30)-positive cell line Karpas 299 using the method described below.
Loss of tumour cell viability following treatment with cytotoxic drugs or ADCs in vitro can be measured by growing cell lines in the presence of increasing concentrations of drugs or ADCs and quantifying the loss of proliferation or metabolic activity using CellTiter Glo® Luminescence reagent (Promega Corp. Technical Bulletin TB288; Lewis Phillips G. D, Cancer Res 2008; 68:9280-9290). […]
The human T cell lymphoma cell line Karpas 299 was obtained from Dr Abraham Karpas at the University of Cambridge. […] CD30-positive Karpas 299 were counted using a Neubauer haemocytometer and adjusted to a cell density of 5×10^4/mL. […]
The cell viability assay was carried out using the Cell-Titer Glo® Luminescence reagent, as described by the manufacturer's instructions, (Promega Corp. Technical Bulletin TB288; Lewis Phillips G. D, Cancer Res 2008; 68:9280-9290). […] Luminescence was recorded using a plate reader (e.g. MD Spectramax M3 plate reader), and data subsequently analysed using a four parameter non-linear regression model. […]

[2] = In vivo pharmacokinetics in rats, average DAR by CD30 affinity capture and HIC; parameters: species or system Sprague-Dawley rats; details: single dose 7 mg/kg IV, period of 850 h
Protocol: (§1) Brentuximab conjugate 10 was used in this study as the ADC with a pendant PEG group. Brentuximab conjugate 11 was used as a comparator with a non-pendant PEG group.
(§2) In vivo pharmacokinetics in rats. Sprague-Dawley rats (3 rats per group) with an average weight of 200 g were treated with either 10, 11 or Adcetris®, via the tail vein (IV, bolus) at a single dose of 7 mg/kg. Serial sampling of 100 μL blood was performed before dosing and subsequently at 30 min, 24 h, 48 h, 7 d, 14 d and 35 d post-dosing respectively. Plasma was prepared from fresh blood samples and frozen at −80° C. until analysis.
CD30 affinity capture for average DAR determination Affinity capture was performed using streptavidin coated magnetic beads (Dynabeads-Streptavidin T1, Life Technologies). […] 500 1AL of the plasma sample in PBS was added to the CD30-coated beads and incubated overnight at 4° C. and finally washed using PBS. Captured antibodies were eluted using acidic elution buffer for 5 minutes at 4° C. […] Eluted samples were further mixed with HIC loading buffer and analysed using hydrophobic interaction chromatography with UV detection (HIC-UV).
Hydrophobic interaction chromatography for average DAR determination. Affinity captured ADCs were analysed using hydrophobic interaction chromatography in order to determine the average drug to antibody ratio (DAR). […]

[3] = In vivo pharmacokinetics in rats, total (anti-CD30 antibody) ELISA; parameters: species or system Sprague-Dawley rats; details: single dose 7 mg/kg IV, period of 850 h
Protocol: as §1, §2
Total (anti-CD30 antibody) ELISA. Total brentuximab antibody content from plasma samples was quantified using ELISA technology. Briefly, Maxisorp™ 96 well plates (Nunc/Fisher) were coated with recombinant human CD30, (Sino Biological Inc, 2.5 μg/mL in diluent) and incubated at 4° C. overnight. Plasma samples were diluted to ensure that the unknown ADCs fell within the linear range of the sigmoidal standard calibration curve. […]
IgG, (Promega) was added to the plate and the samples were incubated for 1 hour at room temperature on a shaker at 350 rpm. […] The assay was stopped with 100 μL of 0.5 M H2SO4 and read at UV λ=[…] using the plate reader. Data were plotted and evaluated in GraphPad Prism 5 and Microsoft Excel.

Compound	IC50 [1] [nM]	Rate of drug loss from the conjugate (average DAR) [2]	Rate of clearance from the circulation (total antibody) [3]
CC[C@H](C)[C@@H]([C@@H](CC(=O)N1CCC[C@H]1[C@H](OC)[C@@H](C)C(=O)N[C@H](C)[C@@H](O)c1ccccc1)OC)N(C)C(=O)[C@@H](NC(=O)[C@@H](NC)C(C)C)C(C)C [MMAE] (H-[NMeV]V[Dil][Dolaproine]-X1)	0.105	–	–
Adcetris®	–	much faster rate of drug dissociation	cleared more quickly
